Test results as given in publication PMC4065332, “PEX14 binding to Arabidopsis PEX5 has differential effects on PTS1 and PTS2 cargo occupancy of the receptor” (Febs Letters, 2014).
Where no end group is shown, it is not given here. lissamine = lissamine: fluorescent label (lissamine) on the peptide

T1: PEX5 (340–728), termed PEX5C (Arabidopsis thaliana, UniProt Q9FMA3 340-728)
T1 construct: Arabidopsis PEX5 residues 340-728; holds six of the nine W-X3-F/Y motifs and the TPR domain; lacks residues 314-334; also called His6-PEX5C; AtPEX5C; source: E. coli, purified via IMAC
T1 sequence (looked up): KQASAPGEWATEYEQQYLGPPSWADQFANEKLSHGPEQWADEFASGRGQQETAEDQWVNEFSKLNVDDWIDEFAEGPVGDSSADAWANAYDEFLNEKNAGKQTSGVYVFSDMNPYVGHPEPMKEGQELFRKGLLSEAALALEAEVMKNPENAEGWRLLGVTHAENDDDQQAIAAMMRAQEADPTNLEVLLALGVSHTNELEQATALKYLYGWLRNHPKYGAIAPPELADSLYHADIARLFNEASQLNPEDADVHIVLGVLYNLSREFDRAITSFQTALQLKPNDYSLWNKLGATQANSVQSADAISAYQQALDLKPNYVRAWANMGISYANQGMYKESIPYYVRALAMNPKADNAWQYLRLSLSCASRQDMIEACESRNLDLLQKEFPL

B1: lissamine-YQSKL (peptide)
peptide: lissamine-YQSKL
notes: canonical PTS1 cargo peptide; The name puts the lissamine before the peptide; also called lissamine-PTS1; PTS1
B2: HRP–YQSKL (CGGGYQSKL coupled to HRP–maleimide) (peptide)
peptide: C(HRP‑maleimide)GGGYQSKL
notes: generic PTS1 cargo peptide; also called HRP-SKL; peptide-HRP; source: synthetic peptide, coupled to HRP-maleimide (Sigma)

How the values were obtained:
Details in all cases: both partners purified
[1] = biological target: T1, PEX5 (340–728), termed PEX5C; test: fluorescence polarisation; fluorescence anisotropy; dilution series of PEX5C (1 μM–0.04 nM) with lissamine-YQSKL (100 nM); HEPES 20 mM, NaCl 150 mM, pH 7.5; fitted to a 1:1 binding model; without PEX14N
[2] = biological target: T1, PEX5 (340–728), termed PEX5C; test: fluorescence polarisation; fluorescence anisotropy; the same dilution series of PEX5C with lissamine-YQSKL (100 nM) after addition of PEX14N to a constant 1 μM; HEPES 20 mM, NaCl 150 mM, pH 7.5
[3] = biological target: T1, PEX5 (340–728), termed PEX5C; test: far-Western, overlay or dot blot; purified PEX5 constructs pipetted onto nitrocellulose, blocked in 3% BSA PBS-T, probed 1 h with peptide-HRP (200 nM) or PEX14N-HRP (50 nM), ECL; for unloading then incubated with PEX14N 0.2 μM 1 h and 2 μM 16 h at 4 °C

Binder	Kd [1]	Kd [2]	binding result [3]
B1	8.6 ± 4 nM	11.5 ± 3.4 nM	
B2			binds
